The record followed here is patent US20250191685.

The data set concerns KLF6 RTF CDKN1C #200, 8 phosphate-contact R to Q 8 phosphate-contacting Arg to Gln (Homo sapiens). Put plainly: cell_activity. The note with it: on-target activity reduced by only 12%; only CDKN1C upregulated in RNA-seq.

CDKN1C promoter site #200 gave a binding signal (% of unmodified) of 88.
